Source: paper PMC8102066, “Differences in interactions between transmembrane domains tune the activation of metabotropic glutamate receptors” (eLife, 2021)

Target: the molecule itself
Experiment: single-molecule pulldown (SiMPull) with photobleaching step counting; HEK 293T cells surface-labelled with BG-LD555, lysed in 1.2% IGEPAL, diluted in 0.1% IGEPAL buffer; HA-SNAP constructs captured by biotinylated anti-HA antibody on NeutrAvidin/PEG slides; TIRF; percent dimerization = two-step bleaching min-max normalised (5% background, 55% for full-length mGluR2); in some experiments saturating ligands (TASP, MNI …)

B1: HA-SNAP-mGluR3-C127A (receptor, rat, UniProt P31422 23-879, looked up)
chain: LGDHNFMRREIKIEGDLVLGGLFPINEKGTGTEECGRINEDRGIQRLEAMLFAIDEINKDNYLLPGVKLGVHILDTCSRDTYALEQSLEFVRASLTKVDEAEYMAPDGSYAIQENIPLLIAGVIGGSYSSVSIQVANLLRLFQIPQISYASTSAKLSDKSRYDYFARTVPPDFYQAKAMAEILRFFNWTYVSTVASEGDYGETGIEAFEQEARLRNICIATAEKVGRSNIRKSYDSVIRELLQKPNARVVVLFMRSDDSRELIAAANRVNASFTWVASDGWGAQESIVKGSEHVAYGAITLELASHPVRQFDRYFQSLNPYNNHRNPWFRDFWEQKFQCSLQNKRNHRQVCDKHLAIDSSNYEQESKIMFVVNAVYAMAHALHKMQRTLCPNTTKLCDAMKILDGKKLYKEYLLKINFTAPFNPNKGADSIVKFDTFGDGMGRYNVFNLQQTGGKYSYLKVGHWAETLSLDVDSIHWSRNSVPTSQCSDPCAPNEMKNMQPGDVCCWICIPCEPYEYLVDEFTCMDCGPGQWPTADLSGCYNLPEDYIKWEDAWAIGPVTIACLGFLCTCIVITVFIKHNNTPLVKASGRELCYILLFGVSLSYCMTFFFIAKPSPVICALRRLGLGTSFAICYSALLTKTNCIARIFDGVKNGAQRPKFISPSSQVFICLGLILVQIVMVSVWLILETPGTRRYTLPEKRETVILKCNVKDSSMLISLTYDVVLVILCTVYAFKTRKCPENFNEAKFIGFTMYTTCIIWLAFLPIFYVTSSDYRVQTTTMCISVSLSGFVVLGCLFAPKVHIVLFQPQKNVVTHRLHLNRFSVSGTATTYSQSSASTYVPTVCNGREVLDSTTSSL
modifications: SNAP tag labelled with BG-LD555 (BG-LD655 in two-colour SiMPull)
notes: mGluR3, full-length receptor with the intersubunit disulfide cysteine of the LBD mutated; source: HEK 293T, transfected, in lysate; not shown: HA, N-terminal, kept; SNAP, N-terminal, kept
In the case of B1, the “fold reduction in dimerization against SNAP-mGluR3” value is reported as 2 fold.
